Test results: patent US20260055205A1 (published 2026)
Changes are numbered by the printed parent chain. Each block holds one binder with its values, some of them ahead of it.

Biological target: T1, human CD3 epsilon (human, UniProt P07766 23-126, limits assumed)
T1 construct: also called huCD3e
Test: Octet, crude lysate
Experimental: Pool 2 consisted of paTCE molecules each containing PSMA.262 and one of 64 CD3.23 mutation combination variants. Stability and affinity of the individually expressed molecules in the form of crude lysate was evaluated by Octet. […] The binding of these anti-CD3 molecules (CD3.227, CD3.228, CD3.229 and CD3.230) to human and cynomolgus CD3 was measured by Octet and the Tm was measured by Differential Scanning Fluorimetry. All variants were paired with PSMA.262 except for CD3.23 which was paired with PSMA.5.

T1 sequence (P07766 23-126 limits assumed): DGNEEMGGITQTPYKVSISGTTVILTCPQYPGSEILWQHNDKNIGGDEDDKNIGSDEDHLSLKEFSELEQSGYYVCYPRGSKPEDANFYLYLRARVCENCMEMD

B1: CD3.201 (bispecific antibody, V domains shown)
VH: EVQLLESGGGIVQPGGSLRLSCAASGFTFNTYAMNWVRQAPGKGLEWVGRIRSKRNNYATYYADSVKGRFTISRDDSKNTVYLQMNSLKTEDTAVYYCVRHENFGNSYVSWFAHWGQGTLVTVSS
VL: ELVVTQEPSLTVSPGGTVTLTCRSSNGAVTSSNYANWVQQKPGQAPRGLIGGTNKRAPGTPARFSGSLLGGKAALTLSGVQPEDEAVYYCALWYPNLWVFGGGTKLTVL
notes: paTCE with PSMA.262; also called AC3632
- Kd: 8.6 nM

B2: CD3.252 (bispecific antibody, V domains shown)
VH: B1 VH with L5V, R55K, Y61T, G68D
VL: B1 VL
notes: paTCE with PSMA.262; also called AC3683
- Kd: 22.9 nM

B3: CD3.207 (bispecific antibody, V domains shown)
VH: B1 VH with R55Y, Y61T
VL: B1 VL
notes: paTCE with PSMA.262; also called AC3638
- Kd: 15.6 nM

B4: CD3.231 (bispecific antibody, V domains shown)
VH: B1 VH with L5V, S53T, R55Y, N57D
VL: B1 VL
notes: paTCE with PSMA.262; also called AC3662
- Kd: 5.1 nM

B7: CD3.217 (bispecific antibody, V domains shown)
VH: B1 VH with L5V, N30S, R55Y, N57D
VL: B1 VL
notes: paTCE with PSMA.262; also called AC3648
- Kd: 10.7 nM

B8: CD3.211 (bispecific antibody, V domains shown)
VH: B1 VH with L5V, R55T, S87E
VL: B1 VL
notes: paTCE with PSMA.262; also called AC3642
- Kd: 9.5 nM

B12: CD3.221 (bispecific antibody, V domains shown)
VH: B1 VH with L5V, S53T, R55T, S87E
VL: B1 VL
notes: paTCE with PSMA.262; also called AC3652
- Kd: 11.7 nM

B13: CD3.225 (bispecific antibody, V domains shown)
VH: B1 VH with L5V, S53T, R55Y, Y61T, S87E
VL: B1 VL
notes: paTCE with PSMA.262; also called AC3656
- Kd: 19.5 nM

B16: CD3.254 (bispecific antibody, V domains shown)
VH: B1 VH with L5V, S53T, R55Y, Y61T, G68D, S87E
VL: B1 VL
notes: paTCE with PSMA.262; also called AC3685
- Kd: 32.3 nM

B17: CD3.248 (bispecific antibody, V domains shown)
VH: B1 VH with L5V, G49A, R55K, Y61T, G68D, V81L
VL: B1 VL
notes: paTCE with PSMA.262; also called AC3679
- Kd: 49.2 nM

B18: CD3.212 (bispecific antibody, V domains shown)
VH: B1 VH with L5V, N30S, R55T, S87E
VL: B1 VL
notes: paTCE with PSMA.262; also called AC3643
- Kd: 35.6 nM

B19: CD3.206 (bispecific antibody, V domains shown)
VH: B1 VH with L5V, R55Y, N57D
VL: B1 VL
notes: paTCE with PSMA.262; also called AC3637
- Kd: 10.3 nM

B20: CD3.237 (bispecific antibody, V domains shown)
VH: B1 VH with L5V, R55Y, Y58G, S87E
VL: B1 VL
notes: paTCE with PSMA.262; also called AC3668
- Kd: 22.2 nM

B21: CD3.238 (bispecific antibody, V domains shown)
VH: B1 VH with L5V, G49A, S53T, R55Y, Y61T, G68D
VL: B1 VL
notes: paTCE with PSMA.262; also called AC3669
- Kd: 23.1 nM

B22: CD3.222 (bispecific antibody, V domains shown)
VH: B1 VH with L5V, N30S, S53T, R55T, S87E
VL: B1 VL
notes: paTCE with PSMA.262; also called AC3653
- Kd: 10.8 nM

B23: CD3.223 (bispecific antibody, V domains shown)
VH: B1 VH with L5V, S53T, R55Y, N57D, S87E
VL: B1 VL
notes: paTCE with PSMA.262; also called AC3654
- Kd: 6 nM

B24: CD3.242 (bispecific antibody, V domains shown)
VH: B1 VH with L5V, R55Y, N57D, V81L
VL: B1 VL
notes: paTCE with PSMA.262; also called AC3673
- Kd: 7.7 nM

B26: CD3.232 (bispecific antibody, V domains shown)
VH: B1 VH with L5V, N30S, S53T, R55Y, N57D
VL: B1 VL
notes: paTCE with PSMA.262; also called AC3663
- Kd: 5.1 nM

B27: CD3.245 (bispecific antibody, V domains shown)
VH: B1 VH with L5V, R55Y, Y58G, V81L, S87E
VL: B1 VL
notes: paTCE with PSMA.262; also called AC3676
- Kd: 19.3 nM

B28: CD3.249 (bispecific antibody, V domains shown)
VH: B1 VH with L5V, G49A, R55T, Y61T, G68D, V81L
VL: B1 VL
notes: paTCE with PSMA.262; also called AC3680
- Kd: 128 nM

B29: CD3.247 (bispecific antibody, V domains shown)
VH: B1 VH with L5V, G49A, Y61T, G68D, V81L
VL: B1 VL
notes: paTCE with PSMA.262; also called AC3678
- Kd: 28.9 nM

B32: CD3.246 (bispecific antibody, V domains shown)
VH: B1 VH with L5V, G49A, S53T, R55Y, Y61T, G68D, V81L
VL: B1 VL
notes: paTCE with PSMA.262; also called AC3677
- Kd: 35.2 nM

B33: CD3.241 (bispecific antibody, V domains shown)
VH: B1 VH with L5V, G49A, R55T, Y61T, G68D
VL: B1 VL
notes: paTCE with PSMA.262; also called AC3672
- Kd: 92.6 nM

B35: CD3.215 (bispecific antibody, V domains shown)
VH: B1 VH with L5V, N30S
VL: B1 VL
notes: paTCE with PSMA.262; also called AC3646
- Kd: 9.7 nM

B36: CD3.202 (bispecific antibody, V domains shown)
VH: B1 VH with L5V
VL: B1 VL
notes: paTCE with PSMA.262; also called AC3633
- Kd: 8.4 nM

B40: CD3.250 (bispecific antibody, V domains shown)
VH: B1 VH with L5V, S53T, R55Y, Y61T, G68D
VL: B1 VL
notes: paTCE with PSMA.262; also called AC3681
- Kd: 31 nM

B43: CD3.214 (bispecific antibody, V domains shown)
VH: B1 VH with L5V, N30S, R55Y, N57D, S87E
VL: B1 VL
notes: paTCE with PSMA.262; also called AC3645
- Kd: 6.6 nM

B44: CD3.209 (bispecific antibody, V domains shown)
VH: B1 VH with L5V, S87E
VL: B1 VL
notes: paTCE with PSMA.262; also called AC3640
- Kd: 5.6 nM

B47: CD3.226 (bispecific antibody, V domains shown)
VH: B1 VH with L5V, N30S, S53T, R55Y, Y61T, S87E
VL: B1 VL
notes: paTCE with PSMA.262; also called AC3657
- Kd: 50.9 nM

Next, values leading:

- Kd: 16.8 nM
B5: CD3.208 (bispecific antibody, V domains shown)
VH: B1 VH with L5V, R55Y, Y61T
VL: B1 VL
notes: paTCE with PSMA.262; also called AC3639

- Kd: 6.4 nM
B6: CD3.224 (bispecific antibody, V domains shown)
VH: B1 VH with L5V, N30S, S53T, R55Y, N57D, S87E
VL: B1 VL
notes: paTCE with PSMA.262; also called AC3655

- Kd: 52.6 nM
B9: CD3.218 (bispecific antibody, V domains shown)
VH: B1 VH with L5V, N30S, R55Y, Y61T
VL: B1 VL
notes: paTCE with PSMA.262; also called AC3649

- Kd: 4.7 nM
B10: CD3.219 (bispecific antibody, V domains shown)
VH: B1 VH with L5V, S53T, S87E
VL: B1 VL
notes: paTCE with PSMA.262; also called AC3650

- Kd: 29.9 nM
B11: CD3.239 (bispecific antibody, V domains shown)
VH: B1 VH with L5V, G49A, Y61T, G68D
VL: B1 VL
notes: paTCE with PSMA.262; also called AC3670

- Kd: 16.5 nM
B14: CD3.240 (bispecific antibody, V domains shown)
VH: B1 VH with L5V, G49A, R55K, Y61T, G68D
VL: B1 VL
notes: paTCE with PSMA.262; also called AC3671

- Kd: 21.9 nM
B15: CD3.236 (bispecific antibody, V domains shown)
VH: B1 VH with L5V, R55Y, Y58G
VL: B1 VL
notes: paTCE with PSMA.262; also called AC3667

- Kd: 79.9 nM
B25: CD3.253 (bispecific antibody, V domains shown)
VH: B1 VH with L5V, R55T, Y61T, G68D
VL: B1 VL
notes: paTCE with PSMA.262; also called AC3684

- Kd: 43.6 nM
B30: CD3.244 (bispecific antibody, V domains shown)
VH: B1 VH with L5V, R55Y, Y58G, V81L
VL: B1 VL
notes: paTCE with PSMA.262; also called AC3675

- Kd: 4.8 nM
B31: CD3.220 (bispecific antibody, V domains shown)
VH: B1 VH with L5V, N30S, S53T, S87E
VL: B1 VL
notes: paTCE with PSMA.262; also called AC3651

- Kd: 17.4 nM
B34: CD3.234 (bispecific antibody, V domains shown)
VH: B1 VH with L5V, N30S, S53T, R55Y, Y61T
VL: B1 VL
notes: paTCE with PSMA.262; also called AC3665

- Kd: 7.2 nM
B37: CD3.204 (bispecific antibody, V domains shown)
VH: B1 VH with L5V, R55T
VL: B1 VL
notes: paTCE with PSMA.262; also called AC3635

- Kd: 7.2 nM
B38: CD3.205 (bispecific antibody, V domains shown)
VH: B1 VH with R55Y, N57D
VL: B1 VL
notes: paTCE with PSMA.262; also called AC3636

- Kd: 24.9 nM
B39: CD3.233 (bispecific antibody, V domains shown)
VH: B1 VH with L5V, S53T, R55Y, Y61T
VL: B1 VL
notes: paTCE with PSMA.262; also called AC3664

- Kd: 6.5 nM
B41: CD3.235 (bispecific antibody, V domains shown)
VH: B1 VH with L5V, R55Y, N57E
VL: B1 VL
notes: paTCE with PSMA.262; also called AC3666

- Kd: 5.7 nM
B42: CD3.210 (bispecific antibody, V domains shown)
VH: B1 VH with L5V, N30S, S87E
VL: B1 VL
notes: paTCE with PSMA.262; also called AC3641

- Kd: 11.2 nM
B45: CD3.216 (bispecific antibody, V domains shown)
VH: B1 VH with L5V, N30S, R55T
VL: B1 VL
notes: paTCE with PSMA.262; also called AC3647

- Kd: 6.6 nM
B46: CD3.213 (bispecific antibody, V domains shown)
VH: B1 VH with L5V, R55Y, N57D, S87E
VL: B1 VL
notes: paTCE with PSMA.262; also called AC3644
